{"source": "patent US5624904A", "about": "“Method for treating gram positive septicemia” (Massachusetts Institute of Technology, priority 1993, dated 1997)", "key": {"soluble MSRP": {"test_system": "soluble MSRP", "experiment": "bead-binding competition assay: ligands interfering with binding of labeled soluble receptor to poly G beads, M-BSA beads or LTA", "conditions": "inhibitor at 400 μg/ml", "method": "The ability of the soluble MSRP to block scavenger receptor-mediated cellular metabolism of known MSRP ligands, such as radiolabeled endotoxin, whole Gram-positive bacteria, or LTA, is measured by competitive inhibition assays. […] This bead-binding assay can be used to measure the association of endotoxin, lipid IVA, LTA, and similar molecules, to soluble forms of the MSRP."}, "Enterococcus hirae": {"test_system": "Enterococcus hirae", "experiment": "microbial binding assay (whole cell assay) of [35S]s-bSR-I", "method": "(§1) Gram-positive bacteria were grown overnight either on LB agar plates (L. monocytogenes, B. subtilis) or on 5% sheep blood agar plates (all other organisms). Fresh colonies were inoculated into Todd Hewitt Broth (DIFCO) and were grown to stationary phase (16-18 hours; 1×10^9 CFU/1 ml) at 37° C. without shaking. Initial experiments indicated greater binding of MSRP to organisms grown to stationary phase compared to organisms used at log phase. Thus, stationary phase organisms were used in all experiments, although results were similar for log phase organisms.\n(§2) All bacterial strains were harvested by centrifugation at 3500×g for 10 minutes and washed twice in cold Buffer B (20 mM Tris base at pH 8.0/150 mM NaCl/0.05% NAN3) before resuspending to a final density of approximately 1×10^9 bacteria/ml (O.D.600 =2.0).\n(§3) [^35 S]methionine-labeled conditioned medium was prepared from transfected CHO[s-bSRI]-A2 cells and untransfected CHO cells. The media were designated [^35 S]s-bSR-I medium (containing s-bSR-I) and [^35 S]control medium (containing no s-bSR-I) respectively. As described by D. Resnick et al., 268 J. Biol. Chem. 3538-3545 (1993), CHO[s-bSR-1]-A2 and untransfected CHO cells were plated at a density of 9×10^5 cells/100 mm dish in medium B. Cells were grown to 80% confluence (approximately 48 hours), washed, and metabolically labeled by addition of 4.5 ml of medium A prepared with methionine- and cysteine-freeHam's F-12 and supplemented with 0.2 mM L-cysteine, and 80 μCi/mi [^35 S]methionine (Trans ^35 S-label with 70% methionine, purchased from ICN Biomedicals, Irvine, Calif.). After a 5 hour incubation at 37° C., supernatants were collected, and protease inhibitors and Buffer A+BSA (20 mM Tris base at pH 8.0/150 mM NaCl/1 mM CaCl2; containing 2 mg/ml bovine serum albumin and 0.05% NAN3) were added at final concentrations of 1 mM phenylmethylsulfonylfluoride (PMSF) (Sigma, St. Louis, Mo.), 1 μM leupeptin (Sigma), and 1 μM pepstatin (Sigma); 2:1 volume ratio of supernatant to buffer. The samples were then clarified by centrifugation (1000×g, 15 minutes, 4° C.) and stored in Falcon 2099 tubes that had been precoated with Buffer A+BSA.\n(§4) Thirty minutes prior to binding assays, unlabeled L-methionine ((Sigma, St. Louis, Mo.) at 10 mM final concentration was added to suspensions of microorganisms grown as described above to minimize incorporation of free [^35 S]methionine into microbial proteins during the assays. One ml assay mixtures containing 200 μl of bacterial suspension (approximately2×10^8 bacteria), 50 μl of Buffer A (20 mM Tris base at pH 8.0/150 mM NaCl/1 mM CaCl2), and 750 μl of either [^35 S]s-bSR-I or [^35 S]control medium were prepared in microcentrifuge tubes and incubated overnight on a rotator at 4° C. Maleylated bovine serum albumin (M-BSA) was coupled to CNBr-activated Sepharose™ (Pharmacia Fine Chemicals, Piscataway, N.J.) at approximately 3 mg M-BSA/mi hydrated resin. Suspensions of M-BSA-coupled Sepharose™ beads (M-BSA beads) (25 μl ) were used in place of microorganism suspensions as positive controls.\n(§5) After the overnight incubation, the bacteria or beads were pelleted by centrifugation in a microcentrifuge at 12,500×g for 5 minutes at 4° C. and washed twice with cold buffer A. In experiments examining the ability of LTA to inhibit the binding of the s-bSR-I to M-BSA beads, the beads were allowed to settle by gravity before each washing step, to prevent pelleting of LTA micelies. The washed pellets were then resuspended in SDS-PAGE sample buffer containing 2% β-mercaptoethanol, boiled for 5 minutes, and insoluble material was removed by centrifugation at 12,500×g for 2 minutes. The reduced samples were fractionated by electrophoresis through 10% polyacrylamide gels, as described by Resnick et al. (1993), and the labeled proteins were visualized by autoradiography with Kodak X-AR film. […]"}, "Streptococcus agalactiae": {"test_system": "Streptococcus agalactiae", "experiment": "microbial binding assay (whole cell assay) of [35S]s-bSR-I", "method": "as §1, §2, §3, §4, §5"}, "Streptococcus pyogenes": {"test_system": "Streptococcus pyogenes", "experiment": "microbial binding assay (whole cell assay) of [35S]s-bSR-I", "method": "as §1, §2, §3, §4, §5"}, "Gram-positive bacteria": {"test_system": "Gram-positive bacteria", "experiment": "microbial binding assay (whole cell assay), all species and strains of Table I", "conditions": "for binding of [35S]s-bSR-I to Gram-positive bacteria: all species and strains tested (Table I)", "method": "as §1, §2\nas §3, with “The samples were then clarified by centrifugation (1000×g, 15 minutes, 4° C.) and stored in Falcon 2099 tubes that had been precoated with Buffer A+BSA.” left out"}, "P388D1 cells": {"test_system": "P388D1 cells", "experiment": "cell binding assay: FITC-labeled S. pyogenes T1/195/2 bound to macrophage-like cells expressing MSRP", "format": "cell-based, murine", "conditions": "30 minutes 37° C., mean ± SD of three experiments, without poly G 72±8", "method": "The ability of poly G to inhibit S. pyogenes binding was used in experiments to examine the interaction of FITC-labeled pyogenes (strain T1/195/2) with a cultured murine macrophage-like cell line, P388D1, shown previously to express MSRP by J. Ashkenas et al., 34 J. Lipid Res. 983-1000 (1993).\nP388D1 cells were maintained in dishes in Ham's F-12 with 10% fetal calf serum, 100 units/ml penicillin, and 100 μg/ml streptomycin. For experiments, approximately 12,500 cells were plated on 1 cm glass cover slips, in media lacking antibiotics. Cells were allowed to adhere for at least 24-36 hours, then washed in Ham's F-12 containing 10% fetal calf serum. S. pyogenes, either unlabeled or FITC-labeled, was added (final dilution of 1:250 from a stock solution of O.D.600 =1.0) in the presence or absence of varying concentrations of poly G. Mixtures were incubated for 30 minutes at 37° C. in 5% CO2, then washed three times in PBS, and fixed with 100% cold methanol. Samples containing non-FITC labeled organisms were Gram-stained, then cover slips were mounted with Moviol and DAPCO. Slides were viewed in blinded fashion by two observers using fluorescence and phase contrast microscopy and a Nikon Microphot FXA epifluorescence microscope. The results (bacteria bound per 100 P388D1 cells) represent the means ± standard deviations determined from three experiments in which at least 100 P388D1 cells were counted for each condition."}, "Bacillus subtilis": {"test_system": "Bacillus subtilis", "experiment": "microbial binding assay (whole cell assay) of [35S]s-bSR-I", "method": "as §1, §2, §3, §4, §5"}, "Listeria monocytogenes": {"test_system": "Listeria monocytogenes", "experiment": "microbial binding assay (whole cell assay) of [35S]s-bSR-I", "method": "as §1, §2, §3, §4, §5"}, "Staphylococcus aureus": {"test_system": "Staphylococcus aureus", "experiment": "microbial binding assay (whole cell assay) of [35S]s-bSR-I", "method": "as §1, §2, §3, §4, §5"}, "Streptococcus mutans": {"test_system": "Streptococcus mutans", "experiment": "microbial binding assay (whole cell assay) of [35S]s-bSR-I", "method": "as §1, §2, §3, §4, §5"}, "S. pneumoniae": {"test_system": "S. pneumoniae", "experiment": "microbial binding assay (whole cell assay) of [35S]s-bSR-I", "design": "species or system Streptococcus pneumoniae", "conditions": "two encapsulated and one rough strain", "method": "as §1, §2\n[^35 S]methionine-labeled conditioned medium was prepared from transfected CHO[s-bSRI]-A2 cells and untransfected CHO cells. The media were designated [^35 S]s-bSR-I medium (containing s-bSR-I) and [^35 S]control medium (containing no s-bSR-I) respectively. […]"}}}
{"molecule": "polyGuanosine [poly G, reference compound]", "values": [{"measurement": "competition with binding of labeled soluble receptor to poly G beads, M-BSA beads, or LTA", "setting": "soluble MSRP", "value": "successful competitors"}, {"measurement": "competition with binding of receptor to Enterococcus hirae", "setting": "Enterococcus hirae; 400 μg/ml poly G", "value": "competed"}, {"measurement": "competition with binding of receptor to S. agalactiae", "setting": "Streptococcus agalactiae; 400 μg/ml poly G", "value": "competed"}, {"measurement": "competition with binding of S. pyogenes to s-bSR-I", "setting": "Streptococcus pyogenes; poly G 400 μ/ml added to assay mixture", "value": "effective competitor"}, {"measurement": "competition of poly G with [35S]s-bSR-I binding to Gram-positive bacteria", "setting": "Gram-positive bacteria; extent of competition varied slightly between organisms", "value": "competitive"}, {"measurement": "number of cell associated bacteria/100 P388D1 cells", "setting": "P388D1 cells; poly G 2 μg/ml", "value": "43±4", "unit": "bacteria/100 P388D1 cells"}, {"measurement": "number of cell associated bacteria/100 P388D1 cells", "setting": "P388D1 cells; poly G 20 μg/ml", "value": "28±9", "unit": "bacteria/100 P388D1 cells"}, {"measurement": "number of cell associated bacteria/100 P388D1 cells", "setting": "P388D1 cells; poly G 200 μg/ml", "value": "22±5", "unit": "bacteria/100 P388D1 cells"}]}
{"molecule": "poly C", "values": [{"measurement": "competition with binding of labeled soluble receptor to poly G beads, M-BSA beads, or LTA", "setting": "soluble MSRP", "value": "failed to compete"}]}
{"molecule": "maleylated BSA: maleylated bovine serum albumin, MSRP ligand", "values": [{"measurement": "competition with binding of labeled soluble receptor to poly G beads, M-BSA beads, or LTA", "setting": "soluble MSRP", "value": "successful competitors"}]}
{"molecule": "s-bSR-I: truncated, secreted trimeric form of the type I bovine macrophage scavenger receptor containing all four extracellular domains, expressed in CHO cells (protein, UniProt P21758 77-453, looked up, extracellular domain, truncated, secreted trimeric form of the type I bovine macrophage scavenger receptor containing all four extracellular domains, expressed in CHO cells) extracellular domain: KWETKNCTVGSVNADISPSPEGKGNGSEDEMRFREAVMERMSNMESRIQYLSDNEANLLDAKNFQNFSITTDQRFNDVLFQLNSLLSSIQEHENIIGDISKSLVGLNTTVLDLQFSIETLNGRVQENAFKQQEEMRKLEERIYNASAEIKSLDEKQVYLEQEIKGEMKLLNNITNDLRLKDWEHSQTLKNITLLQGPPGPPGEKGDRGPPGQNGIPGFPGLIGTPGLKGDRGISGLPGVRGFPGPMGKTGKPGLNGQKGQKGEKGSGSMQRQSNTVRLVGGSGPHEGRVEIFHEGQWGTVCDDRWELRGGLVVCRSLGYKGVQSVHKRAYFGKGTGPIWLNEVFCFGKESSIEECRIRQWGVRACSHDEDAGVTCTT", "values": [{"measurement": "binding of [35S]s-bSR-I to Bacillus subtilis", "setting": "Bacillus subtilis", "value": "bound"}, {"measurement": "binding of [35S]s-bSR-I to Enterococcus hirae", "setting": "Enterococcus hirae; strain 9790, overnight 4° C., autoradiography", "value": "bound"}, {"measurement": "binding of [35S]s-bSR-I to Listeria monocytogenes", "setting": "Listeria monocytogenes", "value": "bound"}, {"measurement": "binding of [35S]s-bSR-I to Staphylococcus aureus", "setting": "Staphylococcus aureus", "value": "bound"}, {"measurement": "[35S]s-bSR-I binding, capsule-minus transposon mutants versus parent strains", "setting": "Staphylococcus aureus; S. aureus isogenic mutants", "value": "equivalently or better"}, {"measurement": "[35S]s-bSR-I binding, capsule-minus transposon mutants versus parent strains", "setting": "Streptococcus agalactiae; S. agalactiae isogenic mutants", "value": "equivalently or better"}, {"measurement": "binding of [35S]s-bSR-I to S. agalactiae", "setting": "Streptococcus agalactiae; overnight 4° C., autoradiography", "value": "bound"}, {"measurement": "binding of [35S]s-bSR-I to Streptococcus mutans", "setting": "Streptococcus mutans", "value": "bound"}, {"measurement": "binding of [35S]s-bSR-I to S. pyogenes", "setting": "Streptococcus pyogenes; eleven strains, seven different M protein types (Table I), overnight 4° C., SDS-PAGE/autoradiography", "value": "bound"}, {"measurement": "dependence of [35S]s-bSR-I binding on bacterial protein synthesis or viability", "setting": "Streptococcus pyogenes; organisms preincubated with 50 μg/ml chloramphenicol or 0.05% NaN3, or killed at 60° C. for 10 minutes", "value": "neither decreased"}, {"measurement": "specificity of [35S]s-bSR-I binding to S. pyogenes", "setting": "Streptococcus pyogenes; strain T1/195/2", "value": "specific"}, {"measurement": "s-bSR-I binding, M protein-negative mutant versus parent", "setting": "Streptococcus pyogenes; type 28 strain T28/150A/5 and spontaneous M protein-negative mutant T28/51/4-4", "value": "equivalently"}, {"measurement": "[35S]s-bSR-I binding, acapsular mutant versus wild type", "setting": "Streptococcus pyogenes; wild type 87-282 and hyaluronic acid-negative transposon mutant TX4", "value": "equally well"}, {"measurement": "binding of [35S]s-bSR-I to S. pneumoniae", "setting": "S. pneumoniae", "value": "minimal binding"}, {"measurement": "binding of [35S]s-bSR-I to Gram-positive bacteria", "setting": "Gram-positive bacteria", "value": "bound"}, {"measurement": "binding of [35S]s-bSR-I to Gram-positive bacteria", "setting": "Gram-positive bacteria; listed as secreted Type I Bovine MSRP", "value": "Bound"}]}
